Assay results as given in the RNAGym collection of RNA variant scans (doi:10.7554/elife.90254).

B1: LINE1-full (parent)
chain: UACGUAGGUGGUUUUCCCCUGAUAGUGCUAAGGGGGCCUGGAAGUUUGGACUGGGCAGAGCUCAACACAGCGUGGCAAAGUGGCUGUGGCUAGACUGCCUCUCUGGAUUCCUCGUCACUCAGCAGGGCAUCUCUGAGAGAAAUGCC

Variants of: B1
Experiment: self-cleavage, relative activity (ratio to wild type); higher = more cleavage; in vitro, sequencing; the parent is a self-cleaving ribozyme

Compared with UACGUAGGUGGUUUUCCCCUGAUAGUGCUAAGGGGGCCUGGAAGUUUGGACUGGUCAGAGCUCAACACAGCGUGGCAAAGUGGCUGUGGCUAGACUGCCUCUCUGGAUUCCUCGCCACUCAGCAGGGCAUCUCUGAGAGAAAUGCC [G55U U115C], UGCGUAGGUGGUUUUCCCCUGAUAGUGCUAAGGGGGCCUGGAAGUUUGGACUGGGCAGGGCUCAACACAGCGUGGCAAAGUGGCUGUGGCUAGACUGCCUCUCUGGAUUCCUCGUCACUCAGCAGGGCAUCUCUGAGAGAAAUGCC [A2G A59G] is lower in self-cleavage: 0.4 for the first, 0.39 for the second.

Going from UACGUAGGUGGUUUUCCCCUGAUAGUGCUAAGGGGGCCCGGAAGUUUGGACUGGGCAGAGCUCAACACAGCGUGGCAAAGUGGCUGUGGCUAGACUGCCUCUCUGGAUUCCUCGUCACUCAACAGGGCAUCUCUGAGAGAAAUGCC [U39C G122A] to UACGUAGGUGGUUUUCCCCUGAUAGUGCUAAGGGGGCCUGGAAGUUUGGACUGGGCAGAGCUCAACACAGCGUGGCGAAGUGGCUGUGGCUAGACUGCCUCUCUGGAUUCCUCGUCACUCAGCAGGGCAUCUCUGAGAGAAAGGCC [A77G U143G], the self-cleavage rises from 1.25 to 2.99.

First: UACGUAGGUGGUUUUCCCCUGAUAGUGCUAAGGGGGCCUGGAAGUUUGGACUGGGCAGAGCUCAACACAGGGUGGCAAAGUGGCUGUGGCUAGACUGCCUCUCUGGAUUCCUCGUCACUCAGCAGGGCACCUCUGAGAGAAAUGCC [C71G U130C]
Second: UACGUAGGUGGUUUACCCCUGAUAGUGCUAAGGGGGCCUGGAAGUUUGGACUGGGCAGAGCUCAACACAGCGUGGCAAAGUGGCUGUGGCUAGACUGCCUCUCUGGAUUCCUCGUCACUCAGCAGGGCAUCUCUGUGAGAAAUGCC [U15A A136U]
The self-cleavage of the first is higher: 0.45 for the first, 0.35 for the second.

Going from UACGUAGGUGGAUUUCCCCUGAUAGUGCUAAGGGGGCCUGGAAGUUUGGACUGGGCAGAGCUCAACACAGCGUGGCAAAGUGGCUGUGGCUAGACGGCCUCUCUGGAUUCCUCGUCACUCAGCAGGGCAUCUCUGAGAGAAAUGCC [U12A U96G] to UAUGUAGGUGGUUUUCCCCUGAUAGUGCUAAGGGGGCCUGGAAGUUUGGACUGGGCAGAGCUCAACACAGCGUGGCAAAGUGGCUGUGGCUAGACCGCCUCUCUGGAUUCCUCGUCACUCAGCAGGGCAUCUCUGAGAGAAAUGCC [C3U U96C], the self-cleavage falls from 0.38 to 0.

First: UACGUAGGUAGUUUUCCCCUGAUAGUGCUAAGGGGGCCUGGAAGCUUGGACUGGGCAGAGCUCAACACAGCGUGGCAAAGUGGCUGUGGCUAGACUGCCUCUCUGGAUUCCUCGUCACUCAGCAGGGCAUCUCUGAGAGAAAUGCC [G10A U45C]
Second: UACGUAGGUGGUUUUCCCCUGAUAGUACUAAGGGGGCCUGGAAGUUUGGACUGGGCAGAGCUCAACACAGCGAGGCAAAGUGGCUGUGGCUAGACUGCCUCUCUGGAUUCCUCGUCACUCAGCAGGGCAUCUCUGAGAGAAAUGCC [G27A U73A]
The self-cleavage of the first is higher: 1.4 for the first, 0.87 for the second.

First: UACGUAUGUGGUUUUCCCCUGAUAGUGCUAAGGGGGCCUGGAAGUUUGGACUGGGCAGAGCUCAACACAGCGUGGCAAAGUGGCUGAGGCUAGACUGCCUCUCUGGAUUCCUCGUCACUCAGCAGGGCAUCUCUGAGAGAAAUGCC [G7U U87A]
Second: UACGUAGGUGGUUUUCCCCUGAUAGUGCUAAGGGGGCCUGGUAGUUUGGACUGGGCAGAGCUCAACACAGCGUGGCAAAGUGGCUGUGGCUAGACUGCCUCUCCGGAUUCCUCGUCACUCAGCAGGGCAUCUCUGAGAGAAAUGCC [A42U U104C]
The self-cleavage of the first is lower: 0.12 for the first, 1.76 for the second.

Compared with UACGUAGGUGGUUUUCCCCUGAUAGUGCUAAGGGGGCCUGGAAGUUUGGACUGGGCAGAGCUCAACACAGCGUGGCAAAGUGGCUGUGGCUAGACUGCCCCUCUGGAUUCCCCGUCACUCAGCAGGGCAUCUCUGAGAGAAAUGCC [U100C U112C], UACGUAGGUGGUUUUCCCCUGAUAGUGCUAAGGGGGCCUGGAAGUUUGGACUGGGCAGAGCUCAACACGGCGUGGCAAAGUGGCUGUGGCUAGACUGCCUCUCUGGAUUCCUCAUCACUCAGCAGGGCAUCUCUGAGAGAAAUGCC [A69G G114A] is lower in self-cleavage: 1.89 for the first, 0.99 for the second.

Compared with UACGUAGGUAGUUUUCCCCUGACAGUGCUAAGGGGGCCUGGAAGUUUGGACUGGGCAGAGCUCAACACAGCGUGGCAAAGUGGCUGUGGCUAGACUGCCUCUCUGGAUUCCUCGUCACUCAGCAGGGCAUCUCUGAGAGAAAUGCC [G10A U23C], UACGUAGGUGGUUUUCCCCUGAUAGUGCUAAGGGGGCCUGGAAGUUUGGACUGGGCAGAGCUCAACACAGCGUGGCAAAGUGGCUGAGGCUAGACUGCCUCUCUGGAAUCCUCGUCACUCAGCAGGGCAUCUCUGAGAGAAAUGCC [U87A U108A] is lower in self-cleavage: 1.49 for the first, 0.06 for the second.

Compared with UACGUUGGUGGUUUUCCCCUGAUAGUGCUAAGGGGGCCUGGAAGUUUGGACUGGGCAGAGCUCAACACAGCGUGGCAAAGUGGCUGUGGCUAGACUGCCUCUCUGGAUUCCUCGUCUCUCAGCAGGGCAUCUCUGAGAGAAAUGCC [A6U A117U], UACGUAGGUGGUUUUCCCCUGAUAGUGCUAAGGGGGCCUGGGAGUUUGGACUGGGCAGAGCUCAACACAGCUUGGCAAAGUGGCUGUGGCUAGACUGCCUCUCUGGAUUCCUCGUCACUCAGCAGGGCAUCUCUGAGAGAAAUGCC [A42G G72U] is lower in self-cleavage: 1.53 for the first, 1.38 for the second.

Going from UACGUAGGUGGUUUUCCCCUGAUAGUGCUAAGGGGGCCUGGAAGUUUGGACUGGGCAGAGCUCAACACAGCGUGGCAAAGUGGCUGUGGCUAGACUGCCUCUCUGGAUUCCUCGUCACUCAGCAGGGCAUCUCUGGGGGAAAUGCC [A136G A138G] to UACGUAGGCGGUUUUCCCCUGAUAGUGCUAAGGGGGCCUGGAAGUUUGGACUGGGCAGAGCUCAACACAGCGUGGCAAAGUGGCUGUGGCUAGACUGCCUCUCUGGAUUCCUCGUCACUCAGCAGGGCAUCUCUGGGAGAAAUGCC [U9C A136G], the self-cleavage rises from 1.6 to 1.75.
